Results: patent US20020031818A1, “Modification of Mdm2 activity” (priority 2000, published 2002)

Key:
Ubc9 [1] = target: T1, Ubc9 (Mus musculus, UniProt P63280); test: Co-immunoprecipitation of Ubc9 with HA-tagged peptide expressed in NIH 3T3 cells; format: cell-based; conditions: HA-tagged penetratin peptide vector, 36 h after transfection
T1 construct: endogenous in cells; host or cells: NIH 3T3
Method: (§1) FIGS. 9A and 9B. A. A peptide corresponding to aa 40-59 on Mdm2 binds Ubc9. mu9bs (Mdm2 Ubc9 binding site) corresponding to aa 40-59 of Mdm2 and its control scrambled counterpart peptide mu9sb (were immobilized on an AminoLink column [Pierce]). 50 μl of peptide-bound beads were incubated with 1 mg of cell lysates from EJ mouse fibroblast cells. Beads were washed extensively with 0.5M LiCl/TBS and eluates were separated on a 14% gel. B. Ubc9 binds to mu9bs in vivo. NIH 3T3 cells were transfected with wt or mutant Ubc9 binding site peptide. 36 h after transfection cells were lysed and lysates were immunoprecipitated with HA-antibodies directed against the HA-tag of transfected peptides. Upper panel depicts to Co-immunoprecipitation of Ubc9 with the wt but not the mutant peptide.
Vectors described in Example I were used in the present example. The sequence of the Ubc-9 binding domain on Mdm2 (aa 40-59, Mdm2 Ubc9 binding site; mu9bs) in wt or in a scrambled orientation (mu9sb) was cloned in frame between EcoRI and XhoI restriction sites into a pcDNA3 that carries the penetration sequence, followed by the sequence encoding the HA-tag. All Mdm2 mutants were cloned in pBluescipt KS. Mutant Ubc9C93S was a gift from Olli Jänne.
To further confirm the ability of the peptide corresponding to mu9bs to associate with Ubc9 we carried out in vivo reactions. […]

GST-Mdm2 = target: T2, GST-Mdm2 (Homo sapiens, UniProt Q00987); test: In vitro conjugation of SUMO-1 to GST-Mdm2 (in vitro sumoylation); format: biochemical
T2 construct: made in house
T2 sequence (Q00987 whole entry): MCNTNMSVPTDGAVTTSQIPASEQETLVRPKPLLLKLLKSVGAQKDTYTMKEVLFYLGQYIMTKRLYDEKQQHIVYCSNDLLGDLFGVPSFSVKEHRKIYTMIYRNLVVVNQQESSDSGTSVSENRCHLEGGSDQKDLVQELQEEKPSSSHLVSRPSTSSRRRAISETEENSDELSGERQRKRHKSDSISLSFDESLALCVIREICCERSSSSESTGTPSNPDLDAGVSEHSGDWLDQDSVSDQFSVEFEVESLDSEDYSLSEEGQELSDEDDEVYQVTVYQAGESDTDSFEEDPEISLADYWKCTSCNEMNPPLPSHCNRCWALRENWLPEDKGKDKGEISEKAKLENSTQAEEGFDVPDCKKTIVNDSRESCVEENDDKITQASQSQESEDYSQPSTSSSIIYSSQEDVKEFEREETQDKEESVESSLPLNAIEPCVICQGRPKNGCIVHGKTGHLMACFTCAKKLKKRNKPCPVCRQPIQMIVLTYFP
Method: A. Time dependent Mdm2 sumoylation in vitro. Bacterially expressed and purified GST-Mdm2 was subjected to in vitro sumoylation reaction in the presence of E1, Ubc9, and ^35S-Sumos. Reaction was terminated after 10,30,50 or 60 minutes, Proteins were separated on 8% gel, Commassie stained, dryed and exposed overnight (upper panel). Lower panel depicts Commassie blue staining of Mdm2 forms. […] (Upper part) The specific Ubc-9-binding site peptide or a nonspecific peptide was added to the reaction for the indicated time periods. […] The lower panel depicts a Coomassie staining visualizing relative amounts of sumoylated and non-sumoylated forms of purified GST-Mdm2. C. The Mdm2 sumoylation assay was carried out in the presence of Ubc-9-binding site peptide (mu9bs) or a nonspecific peptide (mu9bs) which were added to the reaction at the indicated concentrations. […] Mdm2/p53 double null cells were transfected with Flag-tagged Mdm2, HA-tagged Sumo-1 and increasing amounts of the specific or nonspecific Ubc-9-peptides, respectively. Cells were harvested 36 h later and 500 μg of protein was immunoprecipitated using Mdm2 antibodies (2A10). Immunoprecipitated Mdm2 levels were detected using 2A10 antibodies (top). The same membrane was stripped and reprobed using monoclonal antibodies against Sumo-1 (Zymed, middle) to visualize the level of Sumo-1 conjugation to Mdm2 after Ubc-9-peptide expression.
A. Bacterially expressed and purified Mdm2 (1 μg) was incubated with ^32P-labeled Sumo-1, purified Aos1/Uba2 and Ubc9 (0.5 μg) for 60 min at 37° C. in conjugation buffer. For indicated time-periods in vitro translated wt or mutant p19^ARF (0.5 mg) was added to the sumoylation reactions. Upper panel depicts the amount of Sumoylated Mdm2, lower panel reveal the level of Mdm2 and Sumo-Mdm2 in Coomassie blue gel. B. Bacterially expressed and purified Mdm2 (1 μg) was incubated with in vitro-translated ^35S-Sumo, purified Aos1/Uba2 and Ubc9 (0.5 μg) for 60 min at 37° C. in conjugation buffer in the presence of the increasing amounts of bacculovirus-expressed p19^ARF (0, 0.1, 0.5, 1 μg; lanes 1-4 respectively). Bead-bound complexes were washed before being denatured in 3× Sample Buffer. Proteins were separated on 8% SDS-PAGE. Gel was stained with Coomassie blue to verify equal Mdm2 input (lower panel), dried and exposed to X-ray film, which depicts SUMO-1 conjugation to Mdm2 in the presence of the indicated p19 forms (upper panel). […] Double-null cells were transfected with Flag-tagged Mdm2 (1.5 μg), HA-tagged SUMO (1.5 μg) and p19 wt (1.5 μg). Cells were treated with MG132 (40 mM) for 5 h prior to protein preparation. […] (Left) Immunoprecipitated Mdm2 was detected using monoclonal Mdm2 antibodies (2A10, left). […]

Mdm2 = target: T3, Mdm2 (Homo sapiens, UniProt Q00987); test: In vivo sumoylation of Mdm2 in p53/Mdm2 double null cells; format: cell-based; conditions: p53/Mdm2 double null cells, Flag-Mdm2, HA-Sumo-1, increasing amounts of peptide, 36 h
T3 construct: expressed in transfected cells; host or cells: p53/Mdm2 double null cells
T3 sequence (Q00987 whole entry): as above
Method: FIGS. 10A-10D. A. Time dependent Mdm2 sumoylation in vitro. Bacterially expressed and purified GST-Mdm2 was subjected to in vitro sumoylation reaction in the presence of E1, Ubc9, and ^35S-Sumos. Reaction was terminated after 10,30,50 or 60 minutes, Proteins were separated on 8% gel, Commassie stained, dryed and exposed overnight (upper panel). Lower panel depicts Commassie blue staining of Mdm2 forms. B. A peptide corresponding to the Ubc-9 binding site on Mdm2 decreases Mdm2 in vitro sumoylation of Mdm2 in a time-dependent manner. (Upper part) The specific Ubc-9-binding site peptide or a nonspecific peptide was added to the reaction for the indicated time periods. […] The lower panel depicts a Coomassie staining visualizing relative amounts of sumoylated and non-sumoylated forms of purified GST-Mdm2. C. The Mdm2 sumoylation assay was carried out in the presence of Ubc-9-binding site peptide (mu9bs) or a nonspecific peptide ([…]) which were added to the reaction at the indicated concentrations. […] D. A peptide corresponding to the Ubc-9 binding site on Mdm2 decreases Mdm2 sumoylation in vivo. […] Immunoprecipitated Mdm2 levels were detected using 2A10 antibodies (top). […]
FIG. 13A-13E. […] (Left) Immunoprecipitated Mdm2 was detected using monoclonal Mdm2 antibodies (2A10, left). […]

[2] = test system: Mdm2 association with p53; test: p53 immunoprecipitation and immunoblot for bound Mdm2 form and p53 level in peptide-expressing cells; format: cell-based
Method: FIG. 11. Ubc9 binding affects the form of Mdm2 associated with p53. Mdm2/p53 double null cells were transfected with mu9sb or the wild type form mu9bs together with p53 and Mdm2. 36 h after transfection protein extracts were prepared and used for immunoprecipitation of p53 (using D01 antibodies). Immunoprecipitated material was analyzed via immunoblotting using antibodies to Mdm2, enabling to reveal the two major forms of Mdm2, indicated.
Therefore, we transfected human fibroblasts with mu9bs or mu9sb peptides. Immunoprecipitation of p53 was followed by Western blot analysis to determine the type and level of Mdm2 bound to p53 under each of these conditions.

Ubc9 [3] = target: T1, Ubc9; test: Ubc9 capture by peptide immobilized on AminoLink column, Western blot; format: binding; conditions: peptide-bound beads incubated with cell lysates from EJ mouse fibroblast cells; Western blot with Ubc9 antibodies
Method: as §1
Immunobilization of peptides to an AminoLink® column (Pierce Biochemical) was carried out exactly according to the manufacturer's protocol. In brief, column was equilibrated with coupeling buffer and 1 column volume of solution containing 1 mg of peptide was incubated with gel for 6 h. Later column was drained and washed with coupeling buffer. […]
To further assess the role of the Ubc-9 binding domain in Mdm2 sumoylation, a peptide that corresponds to aa 40-59 of Mdm2 was synthesized. […] Beads coupled to the peptides were incubated with cell lysates and bound proteins were analyzed in Western blots using antibodies to Ubc9.

Ubc9 binding to Mdm2 = target: T4, Ubc9 binding to Mdm2 (Homo sapiens, UniProt Q00987); test: In vitro binding of Ubc9 to GST-Mdm2; conditions: GST-Mdm2 phosphorylated by active p38 kinase
T4 construct: made in house; host or cells: GST-Mdm2: bacteria; Ubc9: in vitro translation
T4 sequence (Q00987 whole entry): as above
Method: FIGS. 17A and 17B. A. p19^ARF decreases Ubc9 binding to Mdm2. Bacterially expressed and purified GST-Mdm2 (1 μg) was incubated with ^35S-labeled in vitro translated p19^ARF and Ubc9 at the indicated ratios. After 30 min of incubation GSH beads bound-GST-Mdm2 were washed and separated on a 12% SDS-PAGE. Gel was dried and subjected to autoradiograph, depicting relative amounts of Ubc9 and p19^ARF bound to Mdm2. B. Bacterially expressed and purified GST-Mdm2 (1 μg) was phosphorylated by purified form of active p38 kinase as indicated. Phosphorylated or un-phosphorylated Mdm2 was incubated for 30 min with in vitro translated UbcH5b and Ubc9 (25 μl). Beads were washed and separated on a 12% SDS-PAGE. Gel was dried and exposed to X-ray film. Position of Ubc9 and UbcH5b is shown.
A prerequisite for Mdm2 sumoylation is the association of Ubc9, the SUMO conjugating enzyme, with Mdm2, which enables subsequent conjugation of SUMO-1 to Mdm2. Inhibition of Ubc9's association with Mdm2 attenuates Mdm2 sumoylation. Given the effect of p19^ARF on Mdm2 sumoylation, we proceeded to determine whether p19^ARF may alter Ubc9 binding to Mdm2. To this end we performed an in vitro binding assay, using in vitro translated p19^ARF and Ubc-9, as indicated. […] We next assessed possible changes in Ubc9 binding to Mdm2 upon its phosphorylation by p38.

T1 sequence (P63280 whole entry): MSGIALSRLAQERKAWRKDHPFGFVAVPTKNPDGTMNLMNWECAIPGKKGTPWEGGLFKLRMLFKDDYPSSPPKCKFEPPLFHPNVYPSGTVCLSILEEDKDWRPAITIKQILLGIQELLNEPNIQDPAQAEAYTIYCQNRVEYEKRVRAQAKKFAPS

association of expressed peptide with Ubc9 in vivo (Ubc9 [1]) | capture of Ubc9 by column-coupled peptide (Ubc9 [3]) | Ubc9 binding to Mdm2 upon in vitro phosphorylation of Mdm2 (Ubc9 binding to Mdm2) | Substance | Mdm2 sumoylation in vitro, increasing concentrations of peptide (GST-Mdm2) | Mdm2 sumoylation in vitro, peptide added for different periods of time (GST-Mdm2; peptide present 0-50 min of 60 min reaction) | degree of Mdm2 sumoylation in vivo upon peptide co-expression (Mdm2) | overall level of p53 expression [2] | form of Mdm2 (75 kDa non-sumoylated / 90 kDa sumoylated) associated with p53 ([2]; peptide expression, p53 immunoprecipitation)
associated with Ubc9 | captured Ubc9 |  | mu9bs: peptide that corresponds to aa 40-59 of Mdm2 (mdm2 Ubc9 binding site) (SVGAQKDTYTMKEVLFYLGQ) | dose-dependent decrease of Mdm2 sumoylation | sufficient to attenuate Mdm2 sumoylation in a manner that coincided with the length of the incubation | dose-dependent decrease in the degree of Mdm2 sumoylation in vivo | increased level of p53 | p53 association only with the non-sumoylated form of Mdm2
 |  | marked decrease in Ubc9 binding to Mdm2 | p38: purified active p38 kinase that phosphorylates Mdm2 |  |  |  |  | 
